According to patent publication US20250188167A1:
Where two headings read alike, the source gives them in different places.

Tests used:
[1] = biological target: human B7-H3 (human) (UniProt Q5ZPR3); test: flow cytometry (FACS) on CHO-K1 cells expressing human B7-H3; goat anti-human IgG (H+L) secondary
[2] = biological target: human B7-H3 (human) (UniProt Q5ZPR3); test: cell-based or functional assay
[3] = biological target: human B7-H3 (human) (UniProt Q5ZPR3); test: flow cytometry (FACS) on CHO-K1/B7-H3 cells
[4] = biological target: human B7-H3 (human) (UniProt Q5ZPR3); test: cell-based or functional assay; remark: listed apart in the source

Sequence of UniProt Q5ZPR3 (Q5ZPR3 29-534): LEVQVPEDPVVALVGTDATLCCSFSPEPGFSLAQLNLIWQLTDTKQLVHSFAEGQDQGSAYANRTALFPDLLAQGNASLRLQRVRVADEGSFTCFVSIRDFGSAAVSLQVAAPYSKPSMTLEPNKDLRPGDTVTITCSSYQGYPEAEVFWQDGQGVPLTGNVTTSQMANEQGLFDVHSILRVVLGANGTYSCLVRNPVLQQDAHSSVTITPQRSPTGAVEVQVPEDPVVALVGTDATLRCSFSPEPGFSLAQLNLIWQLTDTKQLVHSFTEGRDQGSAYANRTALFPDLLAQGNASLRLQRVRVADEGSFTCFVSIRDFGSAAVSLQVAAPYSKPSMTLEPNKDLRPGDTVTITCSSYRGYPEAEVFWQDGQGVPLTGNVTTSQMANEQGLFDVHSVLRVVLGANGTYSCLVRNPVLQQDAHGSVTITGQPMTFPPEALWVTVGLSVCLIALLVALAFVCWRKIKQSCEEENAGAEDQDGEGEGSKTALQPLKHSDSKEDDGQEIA

| Molecule | EC50 [1] [nM] | EC50 [3] [nM] | also measured |
| --- | --- | --- | --- |
| MGA271-hIgG1 (antibody) | 81.6 |  |  |
| DS-5573a (antibody) |  |  | CDC % Relative activity (EC50 of positive control DS-5573a / EC50 of sample) [2]: 100%; CDC % Relative activity (EC50 of positive control DS-5573a / EC50 of sample), plate 01 [2]: 100%; CDC % Relative activity (EC50 of positive control DS-5573a / EC50 of sample), plate 02 [2]: 100%; CDC EC50 (% target cell lysis, Cell Titer-Glo) [2]: 0.69 µg/mL; CDC EC50 (% target cell lysis, Cell Titer-Glo), plate 01 [2]: 0.595 µg/mL; CDC EC50 (% target cell lysis, Cell Titer-Glo), plate 02 [2]: 0.628 µg/mL |
| MGA271 (Enoblituzumab) (antibody) | 102 | 20.8 | ADCC % Relative activity (EC50 of positive control MGA-271 / EC50 of sample), plate 01 [2]: 100%; ADCC % Relative activity (EC50 of positive control MGA-271 / EC50 of sample), plate 02 [2]: 100%; ADCC EC50 (% target cell lysis, LDH; NK92/CD16a-VV effector cells), plate 01 [2]: 0.0394 µg/mL; ADCC EC50 (% target cell lysis, LDH; NK92/CD16a-VV effector cells), plate 02 [2]: 0.0443 µg/mL |
| 31H11B1 (antibody, V domains shown) VH: QVQLQQPGAELGKPGTSVKLSCKASGYTFTSYWMHWVKQRPGQGLEWIGHINPNSGSTNQNAKFKNKATLTVDESSSTAYMQLSTLTSEDSAVYYCTRSGSNYRRNYFDYWGQGTTLTVSS VL: DIQMTQSSSYLSVSLGGRVTITCKASDHINNWLAWYQQKPGNAPRLLISGATSLETGVPSRFSGSGSGKDYTLSITSLQTEDVATYYCQQYWSTPLTFGAGTKLELK |  | 0.977 |  |
| 47F3F10B4-VH2-VL4 (antibody, human IgG1, kappa, V domains shown) VH: QVQLVQSGAEVKKPGASVKVSCKASGYTFTDHYMHWVRQAPGQGLEWMGYIFPNNGVSGYNQNFKDRVTMTRDTSTSTVYMELSSLRSEDTAVYYCARRQLGLGTMDYWGQGTLVTVSS VL: DIQMTQSPSSLSASVGDRVTITCRASKSVSTSGYNYMHWYQQKPGKAPKLLIYLASNLESGVPSRFSGSGSGTDFTLTISSLQPEDFATYYCQHSKELPWTFGQGTKVEIKR | 0.767 |  |  |
| 12C9F1B5 (antibody, V domains shown) VH: QIQLVQSGPELKKPGETVKISCKASGFTNYGMNWVKQAPGKGLKWMGWINPYSGVPTYADDFKGRFAFSLETSASTAYLQINNLKNEDTATYFCARDDGFHYTMDYWGQGTSVTVSS VL: DVVLTQTPLSLPVSLGDQASISCRSSQNLVHSNGITYLHWYLQKPGQSPKLLIYKVSNRFSGVPDRFSGSGSGTDFTLTISRVEAEDLGVYFCSQSTLVPWTFGGGTKLEIK |  | 4.76 |  |
| 34A9C12 (antibody, V domains shown) VH: QIQLVQSGPELKKSGETVKISCKASGFTNYGINWVKQAPGKGLKWMGWINPYSGVPTYADDFKGRFAFSLETSASTAYLQINNLKNEDSATYFCARDDGFHYTMDYWGQGTSVTVSS VL: DVVLIQTPLSLPVSLGDQASISCRSSQNLVHSNGITYLHWYLQKPGQSPKLLIYKVSNRFSGVPDRFSGSGSGTDFTLKISRVEAEDLGVYFCSQSTLVPWTFGGGTKLEIK |  | 0.822 |  |
| 37D11F5B8 (antibody, V domains shown) VH: QIQLVQSGPELKKPGETVKISCKASGDTFRNNGMNWVKQAPGKGLKWMGWINPYSGVPTYADDFKGRFAFSLETSASTAFLQINNLKNEDTATYFCARDDGYHYTMDFWGLGTSVTVSS VL: DVVMTQTPLSLPVSLGDQASISCRSSQSLVHSNGITYLHWYLQKPGQSPKLLTYKVSHRFSGVPDRFSGSGSGTDFTLKISRVEAEDLGVYFCSQSTHVPWTFGGGTKLEIK |  | 0.909 |  |
| 47C7E3 (antibody, V domains shown) VH: QIQLVQSGPELKKPGETVKISCKASGYTFTNFGMNWVKQAPGKGLKWMGWIYTPSGVPIYADDFKGRFAVSLETSASTAYLQINNLKNEDTATYFCARDDGYYYTMDYWGQGTSVTVSS VL: DDVMTQTPLSLPVSLGDHASISCRSSQSLVHSNGDTYLHWYLQKPGQSPKLLIYKVSNRFSGVPDRFSGSGSGTDFTLKISRVEAEDLGVYFCSQSTHVPWTFGGGTKLEIK |  | 0.87 |  |
| 38F11B2 (antibody, V domains shown) VH: QIQLVQSGPELKKPGETVKISCKASGYTFIDYGMNWVKQAPGKGLKWMGWINIYSGVPTYADDFKGRFAFSLETSANTAYLQINNLKNEDTATYFCARDDGYHYTMNYWGQGTSVTVSS VL: DIVMTQTPLSLPVSLGDQASISCRSSQSLVHSNGITYLHWYLQKSGQSPKLLIYKVSNRFSGVPDRFSGSGSGTAFTLKISRVEAEDLGVYFCSQSTHVPWTFGGGTKLEIK |  | 0.651 |  |
| 43H11G12 (antibody, V domains shown) VH: QIQLVQSGPELKKPGETVKISCKASGYNFRDFGMNWVKQAPGKGLKWMGWLNSYSGVPTYADDFKGRFVLSLETSASTAYLQINNLINEDTATYFCGRDDGYNYTMNYWGQGTSVTVSS VL: DVVMTQAPLSLPVSLGDQASISCRSSQSLVHSNGITYLHWYLQRAGQSPQLLIYKVSNRFSGVPDRFSGSGSGTDFTLKISRVEAEDLGVYFCSQSTHVPWTFGGGTKLEIK |  | 6.38 |  |
| 38D6A4 (antibody, V domains shown) VH: QIQLVQSGPELKKPGEAVKISCKASGSTFTDFGMNWVRQAPGKGLKWMGWINPYSGVPTYADEFKGRFVFSLETSARVAYMQINDLKNEDTATYFCARDDGYHYTMDYWGQGTSVTVSS VL: DVVMTQTPLPLPVSLGDQASISCRSSQSLIHSNGITYLHWYLQKPGQSPKLLIYKVSNRFSGVPDRFTGSGSGTDFTLKISRVEAEDLGVYFCSQSTHVPWTFGGGSKLEIR |  | 1.78 |  |
| 37F11A10 (antibody, V domains shown) VH: QIQLVQSGPELKKPGETVKISCKASGDTFRNYGMNWVKQAPGKGLKWMGWINPYSGVPTYADDFKGRFAFSLETSASTAFLQINNLKNEDTATYFCARDDGFHYTMDYWGLGTSVTVSS VL: DVVMTQTPLSLPVSLGDQASISCRSSQSLLHSNGITYLHWYLQKPGQSPKLLTYKVSHRFSGVPDRFSGSGSGTDFTLKISRVEAEDLGVYFCSQSTHVPWTFGGGTKLEIR |  | 1.38 |  |
| 47F3F10B4-VH1-VL4(IgG1m) (antibody) heavy: QVQLVQSGAEVKKPGASVKVSCKASGYTFTDHYMHWVRQAPGQGLEWMGYIFPNNGVSGYNQNFKDRVTMTRDTSISTAYMELSRLRSDDTAVYYCARRQLGLGTMDYWGQGTLVTVSSASTKGPSVFPLAPSSKSTSGGTAALGCLVKDYFPEPVTVSWNSGALTSGVHTFPAVLQSSGLYSLSSVVTVPSSSLGTQTYICNVNHKPSNTKVDKRVEPKSCDKTHTCPPCPAPELVGGPSVFLLPPKPKDTLMISRTPEVTCVVVDVSHEDPEVKFNWYVDGVEVHNAKTKPPEEQYNSTLRVVSVLTVLHQDWLNGKEYKCKVSNKALPAPIEKTISKAKGQPREPQVYTLPPSREEMTKNQVSLTCLVKGFYPSDIAVEWESNGQPENNYKTTPLVLDSDGSFFLYSKLTVDKSRWQQGNVFSCSVMHEALHNHYTQKSLSLSPGK light: DIQMTQSPSSLSASVGDRVTITCRASKSVSTSGYNYMHWYQQKPGKAPKLLIYLASNLESGVPSRFSGSGSGTDFTLTISSLQPEDFATYYCQHSKELPWTFGQGTKVEIKRTVAAPSVFIFPPSDEQLKSGTASVVCLLNNFYPREAKVQWKVDNALQSGNSQESVTEQDSKDSTYSLSSTLTLSKADYEKHKVYACEVTHQGLSSPVTKSFNRGEC | 0.299 |  | CDC % Relative activity (EC50 of positive control DS-5573a / EC50 of sample), plate 02 [4]: 445%; CDC EC50 (% target cell lysis, Cell Titer-Glo), plate 02 [4]: 0.141 µg/mL |
| 12C9F1B5-VH4-VL2 (antibody, human IgG1, kappa, V domains shown) VH: QVQLVQSGAEVKKPGASVKVSCKASGFTNYGMNWVRQAPGQRLEWMGWINPYSGVPTYADDFKGRVTITRDTSASTAYMELSSLRSEDTAVYYCARDDGFHYTMDYWGQGTLVTVSS VL: DIVMTQSPLSLPVTPGEPASISCRSSQNLVHSNGITYLHWYLQKPGQSPQLLIYKVSNRFSGVPDRFSGSGSGTDFTLKISRVEAEDVGVYYCSQSTLVPWTFGQGTKVEIKR | 0.339 |  | CDC % Relative activity (EC50 of positive control DS-5573a / EC50 of sample), plate 01 [4]: 155%; CDC EC50 (% target cell lysis, Cell Titer-Glo), plate 01 [4]: 0.384 µg/mL |
| 43H11G12-VH4-VL2 (antibody, human IgG1, kappa, V domains shown) VH: QVQLVQSGAEVKKPGASVKVSCKASGYNFRDFGMNWVRQAPGQRLEWMGWLNSYSGVPTYADDFKGRVTITRDTSASTAYMELSSLRSEDTAVYYCARDDGYNYTMNYWGQGTLVTVSS VL: DIVMTQSPLSLPVTPGEPASISCRSSQSLVHSNGITYLHWYLQKPGQSPQLLIYKVSNRFSGVPDRFSGSGSGTDFTLKISRVEAEDVGVYYCSQSTHVPWTFGQGTKVEIKR | 0.155 |  | CDC % Relative activity (EC50 of positive control DS-5573a / EC50 of sample), plate 01 [4]: 104%; CDC EC50 (% target cell lysis, Cell Titer-Glo), plate 01 [4]: 0.57 µg/mL |
| 12C9F1B5-VH2.1-VL2 (antibody, human IgG1, kappa, V domains shown) VH: QVQLVQSGAEVKKPGASVKVSCKASGFTNYGMNWVRQAPGQGLEWMGWINPYSGVPTYADDFKGRVTMTRDTSISTAYMELSRLRSDDTAVYYCARDDGFHYTMDYWGQGTLVTVSS VL: DIVMTQSPLSLPVTPGEPASISCRSSQNLVHSNGITYLHWYLQKPGQSPQLLIYKVSNRFSGVPDRFSGSGSGTDFTLKISRVEAEDVGVYYCSQSTLVPWTFGQGTKVEIKR | 0.153 |  |  |
| 47F3F10B4 (antibody, V domains shown) VH: EVQLQQSGPELVKPGASVKMSCKASGYTFTDHYMHWVKQSHGKSLEWIGYIFPNNGVSGYNQNFKDKATLTVDKSSSTAYMDLRSLTPEDSAVYYCTRRQLGLGTMDYWGQGTSVTVSS VL: DIVLTQSPASLAVSLGQRATISCRASKSVSTSGYNYMHWYQQKPGQPPKLLIYLASNLESGVPARFSGSGSGTDFTLNIHPVEEEDAATYYCQHSKELPWTFGGGTKLEIK |  | 0.751 |  |
